# Molecular target: dynein-dynactin-BicD2N (DDB) complex (mouse | rat (endogenous in rat brain cytosol)) (UniProt Q921C5)
# Assay: multicolor single-molecule TIRF microscopy
# Sequence of UniProt Q921C5 (Q921C5 whole entry, looked up, one chain of several): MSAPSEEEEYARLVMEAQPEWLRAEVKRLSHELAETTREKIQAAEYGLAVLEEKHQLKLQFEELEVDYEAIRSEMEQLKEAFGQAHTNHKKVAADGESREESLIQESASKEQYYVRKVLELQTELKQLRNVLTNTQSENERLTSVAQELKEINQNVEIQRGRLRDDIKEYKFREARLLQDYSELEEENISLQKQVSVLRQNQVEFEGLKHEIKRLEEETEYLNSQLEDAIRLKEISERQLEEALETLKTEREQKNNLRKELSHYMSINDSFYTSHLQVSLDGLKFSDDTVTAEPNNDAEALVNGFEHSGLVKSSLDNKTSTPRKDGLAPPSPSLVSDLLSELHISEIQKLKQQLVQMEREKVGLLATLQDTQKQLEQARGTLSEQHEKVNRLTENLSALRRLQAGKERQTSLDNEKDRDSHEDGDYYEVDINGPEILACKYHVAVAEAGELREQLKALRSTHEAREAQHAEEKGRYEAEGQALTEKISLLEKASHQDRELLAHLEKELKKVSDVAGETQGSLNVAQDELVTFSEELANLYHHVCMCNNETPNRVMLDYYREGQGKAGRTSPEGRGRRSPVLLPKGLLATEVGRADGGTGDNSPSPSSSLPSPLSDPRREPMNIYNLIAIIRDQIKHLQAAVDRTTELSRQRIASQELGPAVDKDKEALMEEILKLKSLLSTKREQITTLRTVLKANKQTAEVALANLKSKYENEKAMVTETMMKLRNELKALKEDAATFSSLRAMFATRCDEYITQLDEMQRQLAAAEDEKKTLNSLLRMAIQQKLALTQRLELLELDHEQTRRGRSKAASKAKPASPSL
binder,measurement,value
"Rattus norvegicus LIS1 (PAFAH1b1), StrepII-SNAPf tagged, wild type (natural protein, SNAP dye (SNAP-Alexa 647 or SNAP-Surface 488) covalently on the SNAP tag) MVLSQRQRDELNRAIADYLRSNGYEEAYSVFKKEAELDMNEELDKKYAGLLEKKWTSVIRLQKKVMELESKLNEAKEEFTSGGPLGQKRDPKEWIPRPPEKYALSGHRSPVTRVIFHPVFSVMVSASEDATIKVWDYETGDFERTLKGHTDSVQDISFDHSGKLLASCSADMTIKLWDFQGFECIRTMHGHDHNVSSVAIMPNGDHIVSASRDKTIKMWEVQTGYCVKTFTGHREWVRMVRPNQDGTLIASCSNDQTVRVWVVATKECKAELREHEHVVECISWAPESSYSSISEATGSETKKSGKPGPFLLSGSRDKTIKMWDVSTGMCLMTLVGHDNWVRGVLFHSGGKFILSCADDKTLRVWDYKNKRCMKTLNAHEHFVTSLDFHKTAPYVVTGSVDQTVKVWECR",percent of DDB-L complexes with both 647- and 488-SNAP LIS1,8%
same,percent of DDB-L complexes with two LIS1 dimers,< 24%
same,percent of diffusive DDB complexes with a bound LIS1,34%
same,percent of processive DDB complexes with a bound LIS1,18%
same,stoichiometry N (LIS1 dimer per DDB),1
same,stoichiometry N (LIS1 dimers per DDB),2

# Source: publication doi:10.1101/124255
